Experiments:
[1] = target: T1, human ROR1 expressed on the cell surface (human, UniProt Q01973 30-937); assay: flow cytometry on 697 cells (ALL), C2E3 IgG, FITC anti-human Fc detection
T1 construct: whole, on cells; also called cell surface-expressed ROR1 antigen; ROR1 on JeKo-1, Mino, CHO-human ROR1, MC38-human ROR1 and other cancer cell lines
Method: (§1) FACS analysis (FACSCalibur, BD Biosciences) was used to analyze the binding of the anti-ROR1 antibody of the present invention to ROR1 in the above cell lines.
(§2) Specifically, the respective cell lines were dissociated and washed in PBS, then the numbers of cells were counted and adjusted to 2×10⁵ cells/200 PBS. Then, they were treated with 10 /mL of the antibody of clone name C2E3 of the ROR1 monoclonal antibodies prepared in Embodiment 3, and reacted for 1 hour at 4° C. After the reaction, the cells were washed in PBS, then FITC-marked constant region (Fc) specific antibody (Goat anti-human IgG FITC conjugate, Fc specific, Sigma, F9512, concentration 20 mg/ml) was suspended in 2 /1×10⁵ cells/200 PBS and reacted for 1 hour at 4° C. After reacting, the cells were washed with PBS and analyzed with the FACSCalibur equipment. The negative control was only treated with FITC-marked constant region (Fc) specific antibody. To compare the degree of ROR1 expression among the respective cancer cell lines, the quotient of dividing the shifted readings for the experimental group treated with the ROR1 monoclonal antibody (C2E3) of the present invention by the shifted readings for the control group (MFI Ratio: MFI of anti-ROR1/MFI or 2nd Ab) is indicated.

[2] = target: T1, human ROR1 expressed on the cell surface; assay: flow cytometry on Mino cells (MCL), C2E3 IgG, FITC anti-human Fc detection
Method: as §1, §2

[3] = target: T1, human ROR1 expressed on the cell surface; assay: flow cytometry on JeKo-1 cells (MCL), C2E3 IgG, FITC anti-human Fc detection
Method: as §1, §2

[4] = target: T1, human ROR1 expressed on the cell surface; assay: flow cytometry on Kasumi-2 cells (ALL), C2E3 IgG, FITC anti-human Fc detection
Method: as §1, §2

[5] = target: T1, human ROR1 expressed on the cell surface; assay: flow cytometry on A549 cells (lung cancer), C2E3 IgG, FITC anti-human Fc detection
Method: as §1, §2

[6] = target: T1, human ROR1 expressed on the cell surface; assay: flow cytometry on H460 cells (lung cancer), C2E3 IgG, FITC anti-human Fc detection
Method: as §1, §2

[7] = target: T1, human ROR1 expressed on the cell surface; assay: flow cytometry on H1437 cells (lung cancer), C2E3 IgG, FITC anti-human Fc detection
Method: as §1, §2

[8] = target: T1, human ROR1 expressed on the cell surface; assay: flow cytometry on AGS cells (gastric cancer), C2E3 IgG, FITC anti-human Fc detection
Method: as §1, §2

[9] = target: T1, human ROR1 expressed on the cell surface; assay: flow cytometry on BT20 cells (breast cancer), C2E3 IgG, FITC anti-human Fc detection
Method: as §1, §2

[10] = target: T1, human ROR1 expressed on the cell surface; assay: flow cytometry on Calu-6 cells (lung cancer), C2E3 IgG, FITC anti-human Fc detection
Method: as §1, §2

[11] = target: T1, human ROR1 expressed on the cell surface; assay: flow cytometry on DLD-1 cells (colon cancer), C2E3 IgG, FITC anti-human Fc detection
Method: as §1, §2

[12] = target: T1, human ROR1 expressed on the cell surface; assay: flow cytometry on BT474 cells (breast cancer), C2E3 IgG, FITC anti-human Fc detection
Method: as §1, §2

[13] = target: T1, human ROR1 expressed on the cell surface; assay: flow cytometry on HCC70 cells (breast cancer), C2E3 IgG, FITC anti-human Fc detection
Method: as §1, §2

[14] = target: T1, human ROR1 expressed on the cell surface; assay: flow cytometry on HCC1187 cells (breast cancer), C2E3 IgG, FITC anti-human Fc detection
Method: as §1, §2

[15] = target: T1, human ROR1 expressed on the cell surface; assay: flow cytometry on HCC1806 cells (breast cancer), C2E3 IgG, FITC anti-human Fc detection
Method: as §1, §2

[16] = target: T1, human ROR1 expressed on the cell surface; assay: flow cytometry on HCC1937 cells (breast cancer), C2E3 IgG, FITC anti-human Fc detection
Method: as §1, §2

[17] = target: T1, human ROR1 expressed on the cell surface; assay: flow cytometry on MKN-28 cells (gastric cancer), C2E3 IgG, FITC anti-human Fc detection
Method: as §1, §2

[18] = target: T1, human ROR1 expressed on the cell surface; assay: flow cytometry on NCI-H1975 cells (lung cancer), C2E3 IgG, FITC anti-human Fc detection
Method: as §1, §2

[19] = target: T1, human ROR1 expressed on the cell surface; assay: flow cytometry on Jurkat cells (T cell leukemia), C2E3 IgG, FITC anti-human Fc detection
Method: as §1, §2

[20] = target: T1, human ROR1 expressed on the cell surface; assay: flow cytometry on NCI-N87 cells (gastric cancer), C2E3 IgG, FITC anti-human Fc detection
Method: as §1, §2

[21] = target: T1, human ROR1 expressed on the cell surface; assay: flow cytometry on SNU-1750 cells (gastric cancer), C2E3 IgG, FITC anti-human Fc detection
Method: as §1, §2

T1 sequence (Q01973 30-937): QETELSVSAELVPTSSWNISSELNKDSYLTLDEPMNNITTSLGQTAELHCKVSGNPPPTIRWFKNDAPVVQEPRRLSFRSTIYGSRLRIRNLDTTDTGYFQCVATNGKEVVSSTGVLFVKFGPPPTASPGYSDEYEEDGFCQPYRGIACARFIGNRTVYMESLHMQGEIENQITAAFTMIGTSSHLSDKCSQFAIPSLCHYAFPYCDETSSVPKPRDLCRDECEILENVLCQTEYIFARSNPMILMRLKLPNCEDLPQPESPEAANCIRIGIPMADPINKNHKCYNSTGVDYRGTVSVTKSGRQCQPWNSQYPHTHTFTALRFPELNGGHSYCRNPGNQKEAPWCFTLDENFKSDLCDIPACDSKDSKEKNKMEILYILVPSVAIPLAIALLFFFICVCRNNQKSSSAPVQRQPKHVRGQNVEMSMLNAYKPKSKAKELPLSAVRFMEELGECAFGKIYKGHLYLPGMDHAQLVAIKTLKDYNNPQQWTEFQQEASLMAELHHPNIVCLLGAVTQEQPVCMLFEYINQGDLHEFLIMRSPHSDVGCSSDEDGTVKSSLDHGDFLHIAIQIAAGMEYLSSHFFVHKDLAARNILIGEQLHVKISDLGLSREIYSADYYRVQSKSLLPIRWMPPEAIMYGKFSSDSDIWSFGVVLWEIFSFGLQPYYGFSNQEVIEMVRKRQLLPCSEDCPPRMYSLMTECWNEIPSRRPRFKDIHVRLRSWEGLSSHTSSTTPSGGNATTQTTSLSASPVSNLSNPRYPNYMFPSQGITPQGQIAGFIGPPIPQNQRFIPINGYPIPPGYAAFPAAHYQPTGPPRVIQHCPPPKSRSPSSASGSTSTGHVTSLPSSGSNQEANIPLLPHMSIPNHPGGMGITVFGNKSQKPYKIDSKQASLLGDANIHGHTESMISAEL

- Mean Fold Ratio (MFI of anti-ROR1 / MFI of 2nd Ab) [1]: 12
- Mean Fold Ratio (MFI of anti-ROR1 / MFI of 2nd Ab) [2]: 7.2
- Mean Fold Ratio (MFI of anti-ROR1 / MFI of 2nd Ab) [3]: 4
- Mean Fold Ratio (MFI of anti-ROR1 / MFI of 2nd Ab) [4]: 11.5
- Mean Fold Ratio (MFI of anti-ROR1 / MFI of 2nd Ab) [5]: 6
- Mean Fold Ratio (MFI of anti-ROR1 / MFI of 2nd Ab) [6]: 10.9
- Mean Fold Ratio (MFI of anti-ROR1 / MFI of 2nd Ab) [7]: 4.1
- Mean Fold Ratio (MFI of anti-ROR1 / MFI of 2nd Ab) [8]: 12.3
- Mean Fold Ratio (MFI of anti-ROR1 / MFI of 2nd Ab) [9]: 3
- Mean Fold Ratio (MFI of anti-ROR1 / MFI of 2nd Ab) [10]: 3.3
- Mean Fold Ratio (MFI of anti-ROR1 / MFI of 2nd Ab) [11]: 17.6
- Mean Fold Ratio (MFI of anti-ROR1 / MFI of 2nd Ab) [12]: 1.7
- Mean Fold Ratio (MFI of anti-ROR1 / MFI of 2nd Ab) [14]: 9.3
- Mean Fold Ratio (MFI of anti-ROR1 / MFI of 2nd Ab) [15]: 2.3
- Mean Fold Ratio (MFI of anti-ROR1 / MFI of 2nd Ab) [16]: 2.7
- Mean Fold Ratio (MFI of anti-ROR1 / MFI of 2nd Ab) [17]: 4.9
- Mean Fold Ratio (MFI of anti-ROR1 / MFI of 2nd Ab) [18]: 4.2
- Mean Fold Ratio (MFI of anti-ROR1 / MFI of 2nd Ab) [19]: 1.7
- Mean Fold Ratio (MFI of anti-ROR1 / MFI of 2nd Ab) [20]: 11.8
- Mean Fold Ratio (MFI of anti-ROR1 / MFI of 2nd Ab) [21]: 3.9
B1: anti-ROR1 IgG antibody C2E3 (antibody, V domains shown)
VH: EVQLLESGGGLVQPGGSLRLSCAASGFTFSNYAMSWVRQAPGKGLEWVSSISHNSGSTYYADSVKGRFTISRDNSKNTLYLQMNSLRAEDTAVYYCAKFISARKSLGRSYSNGMDVWGQGTLVTVSS
VL: QSVLTQPPSASGTPGQRVTISCTGSSSNIGSNDVTWYQQLPGTAPKLLIYADSKRPSGVPDRFSGSKSGTSASLAISGLRSEDEADYYCGTWDYSLSGYVFGGGTKLTVLG
notes: Full IgG form (human IgG1 constant region, lambda light chain), expressed in CHO-S cells
- Mean Fold Ratio (MFI of anti-ROR1 / MFI of 2nd Ab) [13]: 3.8

Source: US20210069342A1 (LEGOCHEM BIOSCIENCES, published 2021)
